Assay results as given in patent publication US7176283B1, “Protease-activated receptor 3 and uses thereof” (The Regents of the University of California, priority 1996, dated 2007).

Assays:
[1] = target: T1, human PAR3 (Homo sapiens, UniProt O00254); assay: Phosphoinositide hydrolysis in Cos 7 cells transfected with human PAR3; type: cell-based; settings: Cos 7 cells expressing human PAR3; peptide concentrations up to 100 μM
T1 construct: The human PAR3 cDNA used for the functional studies presented below was cloned from a Lamda gt 10 intestinal cDNA library; expressed in transfected cells; host or cells: Cos 7 cells
T1 sequence (O00254 22-374): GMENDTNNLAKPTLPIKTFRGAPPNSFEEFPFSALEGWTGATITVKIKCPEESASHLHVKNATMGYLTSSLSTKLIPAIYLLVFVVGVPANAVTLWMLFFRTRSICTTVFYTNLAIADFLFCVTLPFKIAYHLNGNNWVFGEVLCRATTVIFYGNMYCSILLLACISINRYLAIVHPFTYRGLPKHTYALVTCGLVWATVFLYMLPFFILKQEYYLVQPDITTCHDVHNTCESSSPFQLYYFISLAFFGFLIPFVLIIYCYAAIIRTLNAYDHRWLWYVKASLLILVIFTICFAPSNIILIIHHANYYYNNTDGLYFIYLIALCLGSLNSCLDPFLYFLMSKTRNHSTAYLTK
Method: PAR3 signaling in Cos 7 cells was also examined. Cos 7 cells were transfected with human PAR1 or PAR3. Cells were then metabolically labelled with ^3H-inositol and phosphoinositide hydrolysis was measured in response to the indicated concentrations of a-thrombin (FIG. 8) or γ-thrombin (FIG. 9) as described by Ishii, et al. and Nanevicz et al. (Ishii, K. et al. (1993) supra; and Nanevicz, T. et al. (1996) J. Biol. Chem. 271:702–706).
Peptides homologous to the tethered domain of PAR3 may be tested as potential agonists of PAR3 activity. Two peptides TFRGAP (SEQ NO:27) and […] (SEQ ID NO:17) were synthesized and tested for their ability to mimic the action of thrombin by causing PAR3 signaling as measured by phosphoinositide hydrolysis. Cos 7 cells expressing human PAR3 were incubated with the peptides at concentrations up to 100 μM.

[2] = target: human protease-activated receptor 3 (human) (UniProt O00254); assay: cell-based or functional assay
[3] = system: epitope-tagged human PAR3 bearing the F40A tethered ligand domain mutation
[4] = target: α-thrombin (Homo sapiens (Human)) (UniProt P00734); assay: cell-based or functional assay
[5] = target: epitope-tagged human PAR3 (FLAG epitope fused to amino acid 17 of PAR3) (human) (UniProt O00254); assay: antibody binding to the FLAG epitope on the surface of transfected Cos 7 cells
[6] = target: epitope-tagged human PAR3 (FLAG epitope fused to amino acid 17 of PAR3) (human) (UniProt O00254); assay: cell-based or functional assay

“TFRGAPPNS [synthetic peptide homologous to the tethered ligand domain of PAR3]” was tested, and the “PAR3 signaling as measured by phosphoinositide hydrolysis (agonist activity)” value [1] was “no detectable signaling”.

γ-thrombin (enzyme) showed an EC50, phosphoinositide hydrolysis in Cos 7 cells [2] of 20 nM.

For α-thrombin, the “PAR3 signaling and PAR3 cleavage by thrombin” value [3] was “ablated PAR3 signaling but not PAR3 cleavage by thrombin”.

hirugen (peptide) was tested, and the shift of the α-thrombin dose response curve for PAR3 signaling (data not shown) [4] was 2 logs.

Work on M1 monoclonal antibody (Kodak) yielded a share of M1 antibody binding that was transfection-dependent [5] greater than 95%.

With “TFRGAP [synthetic peptide homologous to the tethered ligand domain of PAR3]” the “PAR3 signaling as measured by phosphoinositide hydrolysis (agonist activity)” value [1] was “no detectable signaling”.

With “thrombin rendered proteolytically inactive by the active site inhibitor PPACK (enzyme)” the 45Ca release in Xenopus oocytes [6] was 1 µM.
